From patent US7423017B2, “Method for treating cartilage disorders” (Genentech, Inc., priority 1997, dated 2008)
Starred links: 1 amine or outer side, 2 acyl side, 3 side chain; linkers in the order of their positions; H or OH if unused. Positions of bridges follow the written chain, without caps; N, C: chain ends. Residues, ends and D or L forms follow the SMILES beside them. No end group written: not given here. Suc = O=C(CCC(=O)[*:2])[*:1]

Experiments:
[1] = target: T1, IGFBP-3 (Homo sapiens, UniProt P17936); test: BIACORE competition assay: IGFBP-3 binding to immobilized IGF-1
T1 construct: made in house
Description: IGF-1 was immobilized on a dextran chip for inhibition assays using a BIACORE™ 2000 surface-plasmon-resonance device (BIAcore, Inc., Piscataway, N.J.) to measure free binding protein. IGF-1 was biotinylated as described above, and injected over a chip to which streptavidin had been coupled (BIAcore, Inc.) to give 400 to 800 RU (response units) of immobilized IGF-1. […] Serial dilutions of peptide were mixed with a constant concentration (40 nM) of IGFBP-3. After incubation for >1 hour at room temperature, an aliquot of 20 μL was injected at a flow rate of 20 μL/min over the IGF-1 chip. Following the injection, a response reading was taken to measure the relative amount of IGFBP-3 bound to the IGF-1.

[2] = target: T1, IGFBP-3; test: competitive phage ELISA of IGF-1 mutants, IGFBP-3; format: binding; settings: for larger effects on IGFBP-3 than on IGFBP-1 binding / increase in IGFBP-3 binding: phage ELISA
Description: (§1) An alanine-scanning mutagenesis approach (Cunningham and Wells, Science, 244: 1081-1085 (1989); U.S. Pat. No. 5,834,250) was used to remove that portion of each side chain of IGF-1 beyond the beta carbon. The contribution of these atoms to the free energy of binding of the IGF-1 analog to IGFBP-1 or to IGFBP-3 was then assessed by competitive phage ELISA. In this assay, IGFBP-1 or IGFBP-3 is used to inhibit IGF-phage mutants from binding to an IGFBP-1- or IGFBP-3-coated immunosorbant plate.
(§2) Immunosorbent plates (Nunc, MAXISORP™, 96 wells) were coated with 100 μl/well of 1 μg/ml IGFBP-1 or IGFBP-3 in PBS buffer pH 7.2 at 4° C. overnight. The plates were then blocked with 0.5% TWEEN 20™/PBS (also used as binding buffer) for 2 hours at room temperature (proteinaceous blocking agents like bovine serum albumin were avoided to prevent potential IGF or IGFBP contamination). E. coli cells (XL1-Blue, Stratagene) freshly transformed with phagemid vector were grown overnight in 5 mL 2YT medium (Sambrook et al., supra) in the presence of M13-VCS helper phage (Stratagene). Phage particles were harvested and resuspended in PBS buffer as described in Lowman, H. B., “Phage Display of Peptide Libraries on Protein Scaffolds,” in Cabilly, S. (ed.), Combinatorial Peptide Library Protocols (Humana Press Inc.: Totowa, N.J., 1998), pp. 249-264. Then phage concentrations were normalized to yield a maximal ELISA signal of 0.2-0.4 for each mutant (Lowman, in Cabilly, S. (ed.), supra). Threefold serial dilutions of soluble competitor were prepared on non-absorbent microtiter plates (Nunc, F, 96 wells) with binding buffer (0.5% TWEEN 20™/PBS) containing phage at the previously determined concentrations. The dilution range of competitor protein extended over six orders of magnitude, starting at 5 μM for IGFBP-1 and 500 nM for IGFBP-3. After blocking, the plates containing immobilized target were washed with 0.05% TWEEN™/PBS buffer and subsequently incubated with 80 μl/well of the premixed phage-competitor solutions for 1 hour at room temperature. After washing, bound phage was detected with 80 μl/well of a solution containing a primary rabbit anti-phage polyclonal antibody and a secondary goat anti-rabbit monoclonal antibody-horseradish peroxidase conjugate in 0.5% TWEEN 20™/PBS. o-Phenylenediamine (Sigma) and tetramethylbenzidine (Kirkegaard and Perry) were used as chromogenic substrates, resulting in product detection at 492 and 450 nm, respectively. IC50 values were determined by fitting the binding data to a generic saturation curve (Lowman, in Cabilly, S. (ed.), supra). At least two individual clones of each IGF-1 mutant were assayed. Numbers in Table XIII represent mean±standard deviation of individually assessed IC50 values.

[3] = target: T2, IGFBP-1 (Homo sapiens, UniProt P08833); test: competitive phage ELISA of IGF-1 mutants, IGFBP-1; format: binding; design: made in house; host or cells: CHO cells; settings: phage display, soluble IGFBP-1 competitor
T2 sequence (P08833 26-259): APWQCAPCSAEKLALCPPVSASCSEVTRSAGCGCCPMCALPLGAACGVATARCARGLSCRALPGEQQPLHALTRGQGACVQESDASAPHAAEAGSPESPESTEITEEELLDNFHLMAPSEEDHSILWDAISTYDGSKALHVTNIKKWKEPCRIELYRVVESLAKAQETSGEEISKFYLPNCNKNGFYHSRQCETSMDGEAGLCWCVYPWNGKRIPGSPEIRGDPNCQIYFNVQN
Description: as §1, §2

[4] = target: T2, IGFBP-1; test: BIACORE kinetics: IGFBP-1 binding to immobilized IGF-1 variants; design: made in house; host or cells: CHO cells; settings: Table XVI; Y31C immobilized via disulfide linkage
Description: The binding affinities of the IGF variants for IGFBP-1 and IGFBP-3 were determined using a BIACORE™-2000 real time kinetic interaction analysis system (Biacore, Inc., Piscataway, N.J.) to measure association (ka) and dissociation (kd) rates. Carboxymethylated dextran biosensor chips (CM5, BIAcore Inc.) were activated with EDC (N-ethyl-N′-(3-dimethylaminopropyl)-carbodiimide hydrochloride) and NHS(N-hydroxysuccinimide) according to the supplier's instructions. For immobilization, IGF mutants in 20 mM sodium acetate, pH 4.8, were injected onto the biosensor chip at a concentration of 50 μg/ml to yield approximately 450-600 RU's (resonance-responce units) of covalently-coupled protein. Unreacted groups were blocked with an injection of 1 M ethanolamine. Kinetic measurements were carried out by injecting two-fold serial dilutions (starting at 1 μM) of either IGFBP-1 or IGFBP-3 in running buffer (PBS, 0.05% TWEEN 20™, 0.1% ovalbumin, 0.1% sodium azide) at 25 °C using a flow rate of 20 μl/min. Association rates (ka) and dissociation rates (kd) were calculated separately using a 1:1 Langmuir™ association model in the BIACORE™ evaluation software v. 3.0. The equilibrium dissociation constant (KD) was calculated as kd/ka.
For measurements of IGFBP-1 binding to IGF-1, kinetics experiments were conducted using a single-cysteine IGF-1 variant, Y31C, that was immobilized onto the sensor chip surface via a disulfide linkage (BIACORE™ System Manual Supplement, 5a-1, Pharmacia (1991)).

[5] = test system: IGFBP-1; test: competitive phage ELISA of IGF-1 mutants, IGFBP-1; format: binding, human; settings: relative IC50 IGFBP-1/relative IC50 IGFBP-3
Description: as §1, §2

[6] = phage display, soluble IGFBP-3 competitor

T1 sequence (P17936 28-291): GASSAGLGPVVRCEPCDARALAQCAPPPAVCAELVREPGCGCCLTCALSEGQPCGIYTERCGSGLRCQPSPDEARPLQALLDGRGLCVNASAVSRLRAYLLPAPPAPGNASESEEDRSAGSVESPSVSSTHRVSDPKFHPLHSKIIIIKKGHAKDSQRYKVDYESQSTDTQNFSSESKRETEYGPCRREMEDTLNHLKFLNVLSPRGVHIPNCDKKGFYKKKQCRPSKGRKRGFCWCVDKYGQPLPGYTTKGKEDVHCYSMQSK

| IC50 [2, 6] [nM] | IC50 [3] [nM] | Compound | relative specificity [5] | also measured |
| --- | --- | --- | --- | --- |
| 2.18 ± 0.01 | 10.9 ± 1.9 | F23A: IGF-1 single alanine mutant | 0.5 | larger effects on IGFBP-3 than on IGFBP-1 binding [2]: about 2 fold |
| 1.01 ± 0.24 | 9.1 ± 1 | S33A: IGF-1 single alanine mutant | 0.8 |  |
| 0.47 ± 0.01 | 11.7 ± 0.6 | S35A: IGF-1 single alanine mutant | 2.3 | increase in IGFBP-3 binding [2]: approximately 2 fold |
| 0.74 ± 0.14 | 13.1 ± 1.8 | M59A: IGF-1 single alanine mutant | 1.6 |  |

The next lines start with the compound.

| Compound | IC50 [2, 6] [nM] | IC50 [3] [nM] | relative specificity [5] | also measured |
| --- | --- | --- | --- | --- |
| CC[C@H](C)[C@@H]1NC(=O)[C@H](Cc2ccc(O)cc2)NC(=O)CNC(=O)[C@H](CCC(N)=O)NC(=O)[C@H](Cc2c[nH]cn2)NC(=O)[C@H](CCCNC(=N)N)NC(=O)[C@H](CC(=O)O)NC(=O)[C@H](Cc2c[nH]c3ccccc23)NC(=O)[C@@H](NC(=O)[C@@H](NC(=O)[C@H](CCC(=O)O)NC(=O)[C@H](Cc2c[nH]c3ccccc23)NC(=O)[C@H](C)N)C(C)C)CSSC[C@@H](C(=O)N[C@H](C(=O)N[C@H](C(=O)N[C@@H](CC(=O)O)C(=O)N[C@@H](CO)C(=O)O)[C@@H](C)O)[C@@H](C)O)NC1=O [BP3-4D3.11DEL] (H-AWEVCWDRHQGYICTTDS-OH; disulfide 5-14; N-terminus and C-terminus assumed) |  |  |  | IC50 [1]: 80000 nM |
| CC(C)C[C@@H]1NC(=O)[C@H](CC(C)C)NC(=O)[C@H](CC(C)C)NC(=O)[C@H](CC(=O)O)NC(=O)[C@@H]2CCCN2C(=O)[C@H](CCCNC(=N)N)NC(=O)[C@H](C(C)C)NC(=O)[C@H](CC(C)C)NC(=O)[C@H](CCC(N)=O)NC(=O)[C@@H](NC(=O)CCC(=O)O)CSSC[C@@H](C(=O)N[C@@H](CCC(N)=O)C(N)=O)NC1=O [BP3-107] (Suc-CQLVRPDLLLCQ-NH2; disulfide 1-11) |  |  |  | IC50 ([1]; inhibition of 40 nM IGFBP-3 binding to immobilized IGF-1): 100000 nM |
| WPVAEWYLCN [BP3-24] |  |  |  | IC50 (mut) / IC50 (wt) ([1]; IGF-1 inhibition, wt = BP3-01-ox): >500 |
| Y31C: point mutant of IGF-1 with a single unpaired cysteinyl thiol for site-specific immobilization |  |  |  | IGFBP-3 IC50 [2, 6]: wild-type-like affinities; IGFBP-1 IC50 [3]: wild-type-like affinities; IGFBP-1 ka [4]: 3.9 ± 0.4 ×10^4 M^−1; IGFBP-1 kd [4]: 3.8 ± 0.1 ×10^−4 s^−1 |
| T41A: IGF-1 single alanine mutant | 0.43 ± 0.06 | 13.7 ± 3.1 | 2.9 | increase in IGFBP-3 binding [2]: approximately 2 fold |
| R55A: IGF-1 single alanine mutant | 0.66 ± 0.03 | 9 ± 2.3 | 1.2 |  |
| G42A: IGF-1 single alanine mutant | 0.53 ± 0.2 | 15.7 ± 3.4 | 2.7 |  |
| Q15A: IGF-1 single alanine mutant | 1.26 ± 0.41 | 13.9 ± 0.9 | 1.0 |  |
| T29A: IGF-1 single alanine mutant | 1.23 ± 0.16 | 7.3 ± 2.4 | 0.5 | larger effects on IGFBP-3 than on IGFBP-1 binding [2]: about 2 fold |
